Laboratory results reported in the supplement of paper PMC12042874.
± gives the uncertainty stated by the source.

Experiment: amyloid nucleation score (Sup35N fusion, yeast selection) (log enrichment); library NNK2; higher = more nucleation; inactive = no reads after selection
In short: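 Three technical output replicates were used for random libraries. Psi-negative yeast expressing peptides of 20 random codons fused to Sup35N were induced with 100 μM copper sulfate for 24 hours and grown 7 days at 30°C on medium lacking adenine and uracil, and input and output plasmid inserts were Illumina-sequenced, excluding sequences with under 100 input reads. The nucleation score is the DiMSum log enrichment of output over input reads, centred on the mode score of non-aggregating sequences.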

Substance	amyloid nucleation score
EDHSGF	-1.15 ± 0.28
TTRAKHVHWYELHNVFMLQL	7.483 ± 0.054
RPRILYLLLFLYNHFLTSYK	-1.08 ± 1
FDDLLEARYSFSVKVCY	-0.947 ± 0.35
NSIVWGIHGFVLTLVFFTCF	-0.849 ± 1
ASSFMSDGRT	0.35 ± 0.56
SLCLGHYFHGTAYNWVVLYI	0.213 ± 0.8
SFVAAEQIMASIEW	0.706 ± 0.29
RVRGSSVSISKLNKCKVVDT	3.33 ± 0.091
LFISFAACGTF	2.09 ± 0.11
RSGSQENKVSECAQDTTFSV	0.367 ± 0.54
IEQVRDECHYTDVATLIEMM	0.675 ± 0.24
CIFYKVGLFFPCWYIVSVLS	-2.03 ± 0.75
LSVSCGVKCLEWADMMAHQV	-0.533 ± 0.54
GNSYNVKTYTNLVGIIMDKA	inactive
LLSSLVFVVNFFAKGLRWLT	-1.9 ± 0.62
CAQVRLQSAFIYSYMASVGR	3.32 ± 0.056
DMERLAGYLQVRSKGMMRHT	0.155 ± 0.42
MLIIKVLCSMCIVIFLTLIC	2.55 ± 0.18
DYMTGV	inactive
LMTPVNSILLRLWCSIFLCF	3.26 ± 0.12
LLLNNLVYFSLRVYLLNFCL	-2.07 ± 0.62
MSAPRMEQSWEHQQQRDHTC	0.661 ± 0.33
VDFFCQPGTCVQEVEDLLVL	-0.166 ± 0.35
GLNIGVCLIMHEDRTNSGGK	8.011 ± 0.032
AQVDGSISSSSVVSVLKSEV	-0.262 ± 0.36

Substance	amyloid nucleation score
IPYLDYMTMH	0.082 ± 0.22
LLRGRFGDSVSAVGFSGFCN	-0.502 ± 0.45
QKMRFYWLVMMAV	-0.283 ± 1
WSWGGHAVMFY	-0.424 ± 1.1
CNSDGWCRIGSAVLPVRSID	-0.441 ± 0.35
DFCWAFRAASLSRGVRLAAV	3.23 ± 0.11
FCFLKFCMLHRLLVFLWRQF	1.54 ± 0.11
IPNVPCIRGVSYSDFFTSSY	-0.044 ± 0.61
IFDVNCPS	-0.196 ± 1.1
AMPSNMLGTSGSYDAC	0.404 ± 0.66
THEIFMHSYY	-0.913 ± 1.1
KAWTLVRHDVLLYV	-0.316 ± 0.44
MVGNWDSV	-0.011 ± 0.49
ISSSSKVD	-0.706 ± 0.29
IPWNQRRKW	0.671 ± 0.16
SSWSLCIYLINRKKAEYVVI	0.462 ± 0.53
KYSTISRCAYSRIDVCGKKK	0.488 ± 0.33
QLNVIDIYTSGWISFP	-1.06 ± 0.26
YINKKLGEAKGRDLLVRLGQ	3.63 ± 0.07
RGRCNVVSSLTFTIRSLWTV	1.59 ± 0.13
TFGESSIVNNPYFLHESGHS	0.813 ± 0.48
VAYLTFLWNQYAVRARKRLP	-0.085 ± 0.35
FRSKPAFRVMGVVCRGFYFL	-0.637 ± 1.1
VRANLGAGFRFKSETGDAS	0.861 ± 0.14
SLTASCI	-0.471 ± 0.76
HYLEGYRFDLEMIVCICQKG	5.369 ± 0.049

Substance	amyloid nucleation score
WRDGSYLFPDVPERPSRNSG	inactive
GCHVRSFK	0.158 ± 0.31
PRPRWRYCFACRLAVFGTVG	6.83 ± 0.036
NYLTQCSRSFNFARVDF	-0.003 ± 0.56
KFCCT	3.47 ± 0.1
CKWTSKIWMRLVRKSEMSVE	1.16 ± 0.27
DVSGISDARMGKPSQWYGWY	0.182 ± 0.38
SCPIRTL	0.424 ± 0.43
LSRNYFVSVLFFSTVRMALA	-0.433 ± 0.54
MLDMPDYCNYYL	1.27 ± 0.14
TVWRARLGSPCGFLCVDRSW	0.414 ± 0.53
RYNFYRLNLSRAVASDETCV	-0.854 ± 0.34
VLRTPIIHTMGTGQV	0.297 ± 0.56
CDKQRFSRF	inactive
VVKRARLSWPFIARKYTSMV	0.116 ± 0.4
PYYTIVMFAFYGLLTVRMGI	0.706 ± 0.4
LKNVLTCESVINQLR	-0.464 ± 0.39
WYTPRLRMLHLAEKGVRVVV	4.31 ± 0.089
QAISVEVVGYRSNLESFTIW	1.71 ± 0.11
PKWIPYSRRWPWAYIF	-1.2 ± 0.48
LDPCGYVVSSEGMLVIGVPI	0.209 ± 0.39
EESYLSHGL	1.22 ± 0.61
HYPQYCFFARKIFITCGYME	5.22 ± 0.061
MYIGVL	-0.065 ± 0.45
FGTYSI	0.389 ± 0.74
MTIDCFTFRDQGVYGTLMLK	3.33 ± 0.043

Substance	amyloid nucleation score
VRTPEYSLHLVAS	-0.02 ± 0.61
AYMNWCTLKMRR	-0.063 ± 0.28
RGLRDLMCLRPLRLASSQPP	inactive
RSLTCLSVKGNLTHTINVCY	6.08 ± 0.069
FYISKFLAWFIIPSGLFLGN	-1.72 ± 1.1
IWSYSSFGVD	-0.064 ± 1.1
DRSAIMVRCNQIFHISPIGF	6.31 ± 0.064
SICVRKYVKFWVWAMNTLFR	-0.174 ± 0.19
KCGSSVVYFIVYQRKLKWGW	0.961 ± 0.81
NSLVYCKKPSLPFHHGCK	-0.032 ± 0.42
CMKAYKIRLLVLEDINSSFS	-1.85 ± 0.48
FDVSWMARVELSIM	-0.018 ± 0.33
SEYVDFYGFLGLVFTLRRSA	0.43 ± 0.64
VGWKTGDRPSEMSSSWDLNG	-0.093 ± 0.37
SWITPMRHLFSNHSLGLNAY	-0.298 ± 0.43
VSVHAVGLSYCMICFSLQNG	-0.611 ± 0.23
WVPRRSSLCGAILYLGTKSM	-0.965 ± 0.78
LIQFDTISSLYP	-0.271 ± 0.63
CRRENRCNRWFQ	-0.602 ± 0.61
VFDEVVVDTLKWWSCVSAGI	-0.484 ± 0.54
RCVWINVGCSPILIGYAAHY	8.728 ± 0.03
FMVILYLDSLSLPWNWIVFG	0.098 ± 0.54
LFARLLLHYVTS	9.204 ± 0.08
ALGENAPILDRWLIGSLVFL	1.77 ± 0.39
NQLDTNSIMLVFLSNMMLGV	3.81 ± 0.056
LITTSMYLWSVHSFVLHMDD	0.545 ± 0.4

Substance	amyloid nucleation score
CMYVLFLRWLNQAM	inactive
TILVTKG	4.89 ± 0.11
LGKFEA	inactive
IGKSCRLRA	0.609 ± 0.46
LFLLFFRFFQMGDLHYIIAI	-0.661 ± 1.1
TNTLMGPFWLSWSNVQPNRS	-0.787 ± 0.54
FRYFDWCIFYSYLLVCY	-1.96 ± 1.1
RFWPWLLVRPNFPMLSQ	0.216 ± 0.37
LLHYGGSFLAAKFRRMSCNE	0.811 ± 0.66
IIYNKSW	2.77 ± 0.094
WTDSHSKMRNFRPG	-0.259 ± 0.49
RTEMHYARQRHELDVPVWL	0.25 ± 0.49
VPRKILFCLLACCRMRQACS	0.67 ± 0.33
FCSSIVMVNSQCFVKSFSTK	6.311 ± 0.028
SGLIY	inactive
RVLISQGLMYISHTMSG	5.337 ± 0.044
NLKIMLIRTIVYHDWSTMHL	7.161 ± 0.061
YVTCRCRYYLSFVIPIFWKR	-0.657 ± 0.25
GLCSIYNWYLVFQVIRTLSW	2.41 ± 0.14
CDRFYSSLVNSVGYCLLNAY	1.47 ± 0.21
CLLHGCHYLSSYLKFSQSWL	inactive
VGDVKVWTVRSSTNATEKFL	0.551 ± 0.27
SYILEFFHWIRSRLEYYGY	-1.5 ± 0.76
